According to article PMC3721995:
Ends that are not written are not given here. * marks the point of attachment. Biotin = O=C1N[C@H]2[C@H](CS[C@H]2CCCCC(=O)*)N1

Biological target: recombinant HIV-1 gp120BaL protein (HIV-1 (isolate BaL))
Assay: ELISA; solid-phase ELISA; gp120BaL coated at 8 ug/ml (50 mM bicarbonate pH 9.6, 4°C, 16 h); biotinylated peptides at 30 ug/ml in 20 mM Tris-HCl pH 7.4, 0.05% Tween-20, 37°C, 60 min; detected with AP-streptavidin, read at 405 nm

Row | Binder | relative binding
1 | Biotin-VEILYRGSWGTVCDD [SRCR1 peptide P5] | 4
2 | Biotin-RGSWGTVCDDSWDTN [SRCR1 peptide P6] | 4.5
3 | Biotin-GSGPIALDDVRCSGH [SRCR1 peptide P14] | 1.5
4 | Biotin-ALDDVRCSGHESYLW [SRCR1 peptide P15] | 2
5 | Biotin-GWLSHNCGHGEDAGV [SRCR1 peptide P19, biotinylated] | 7.5
6 | Biotin-NCGHGEDAGVICSA (cysteine pairing not given here) [SRCR1 peptide P20] | 1.5
